Reference: patent publication US20190352411A1 (ALLIGATOR BIOSCIENCE, published 2019)
Like-named read-outs stand apart in the source and are kept apart here.

Tests used:
[1] = target: T1, Human CD137 (R&D systems) (human, UniProt Q07011 24-186, limits assumed); assay: SPR (Biacore), human CD137 immobilised, bivalent antibody as analyte, 1:1 Langmuir model
T1 construct: also called CD137 coated on the chip surface
Method: Human CD137 (R&D systems) was immobilized to the Biacore™ sensor chip, CMS, using conventional amine coupling. […] The association was followed for 5 minutes and the dissociation for 15 minutes. Regeneration was performed twice using 10 mM Glycine pH 1.7 for 30 seconds. The kinetic parameters and the affinity constants were calculated using 1:1 Langmuir model.
The affinities of the antibodies were in the nanomolar to sub-nanomolar range (Table 3) measured using bivalent antibodies flowed over CD137 coated on the chip surface.

[2] = target: T2, human CD137 on transfected CHO cells (CHO-huCD137) (human); assay: flow cytometry on CHO cells transfected with human CD137, PE anti-hIgG detection, MFI normalised 0-100% for each antibody
T2 construct: domain: transmembrane and intracellular part
T2 sequence (P25942 other isoform, or with tags, fused parts or gaps limits assumed): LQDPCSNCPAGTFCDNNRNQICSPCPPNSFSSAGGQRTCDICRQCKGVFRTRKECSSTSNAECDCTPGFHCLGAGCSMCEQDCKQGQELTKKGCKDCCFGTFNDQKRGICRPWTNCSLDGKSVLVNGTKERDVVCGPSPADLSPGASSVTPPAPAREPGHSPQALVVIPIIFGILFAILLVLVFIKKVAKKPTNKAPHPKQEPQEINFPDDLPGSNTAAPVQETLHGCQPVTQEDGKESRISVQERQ
Method: (§1) Binding and EC50 was determined using flow cytometric of CHO cells transfected with human CD137, cynomolgus CD137 or empty vector. The extracellular part of human or cynomolgus CD137 was fused to the transmembrane and intracellular part of human CD40 and cloned into pcDNA3.1. The vector was subsequently stably transfected into CHO cells. […] CD137-transfected and empty vector-transfected cells were incubated with CD137 antibodies for at least 1 h at 4° C. to saturate the binding. In order to minimize antibody internalization, 0.05% sodium azide was used in the incubation buffer and all work was performed on ice. The CD137 antibodies were detected using PE-conjugated anti-hIgG antibody (109-115-098, Jackson Immunoresearch laboratories), incubated for 30 min at 4° C. Directly after staining the cells were fixed with a paraformaldehyde solution (10× concentrate BD CellFIX, BD biosciences #340181). Cells were analyzed by flow cytometry using FACSVerse (BD Biosciences). The median fluorescence intensity (MFI) for each sample was determined and the dose response data was analysed using Graph Pad Prism.
(§2) MFI data was normalized for each antibody, where 0% is defined as the lowest value and 100% is the highest value in the dose titration for each antibody.

[3] = target: T2, human CD137 on transfected CHO cells …; assay: flow cytometry on CHO-huCD137 cells; 95% confidence interval of the EC50
Method: as §1, §2

[4] = target: T3, recombinant human CD137-Fc (R&D #838-4B) (human, UniProt Q07011 24-186); assay: ELISA, coated human CD137-Fc; mean
T3 construct: Bought protein coated on ELISA plates; also called CD137 (R&D #838-4B); not shown: Fc part of the commercial fusion protein; not described
T3 sequence (Q07011 24-186 limits assumed): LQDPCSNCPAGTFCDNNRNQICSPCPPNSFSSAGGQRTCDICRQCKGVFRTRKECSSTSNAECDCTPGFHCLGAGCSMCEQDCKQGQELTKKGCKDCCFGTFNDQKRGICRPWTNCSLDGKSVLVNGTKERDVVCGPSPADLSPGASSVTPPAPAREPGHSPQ

[5] = target: human CD137 (Acro Biosystems #41B-H5227) (human, UniProt Q07011 24-186); assay: Octet (BLI), antibody amine-coupled to ARG2 biosensor, soluble CD137 as analyte, 1:1 model
Chain of human CD137 (Acro Biosystems #41B-H5227) (Q07011 24-186 limits assumed): as above
Method: (§3) Materials and method CD137 affinity was determined using the Octet Red 96 platform (ForteBio). […] 7 2-fold serial dilutions of CD137 (Acro Biosystems #41B-H5227 and #41B-C52H4) from 100 nM was prepared in 1× kinetic buffer (ForteBio #18-1092). Association was measured for 180 s followed by dissociation for 180 s in 1× kinetic buffer. 10 mM Glycine pH 2.2 was used for regeneration.
(§4) Data generated was referenced by reference well subtraction (1188), the baseline was aligned with the y-axis, inter-step correlation by alignment against association was performed and the data was smoothed by a Savitzky-Golay filtering in the data analysis software (v.9.0.0.14). The processed data was fitted using a 1:1 Langmuir binding model with X² as a measurement of fitting accuracy.

[6] = target: cynomolgus CD137 (Acro Biosystems #41B-C52H4) (cynomolgus, UniProt A9YYE7 24-186); assay: as above
Chain of cynomolgus CD137 (Acro Biosystems #41B-C52H4) (A9YYE7 entry or part of it): as the sequence (Q07011 24-186 limits assumed) above, with P4L, N19S, R50K, T66I, P67S, F69Y, G75E, V149A counted along it
Method: as §3, §4

[7] = target: T4, CD40-Fc (Ancell #504-820) (human, UniProt P25942 21-193); assay: ELISA, coated CD40-Fc
T4 construct: Coated on ELISA plates; not shown: Fc part of the commercial fusion protein; not described
T4 sequence (P25942 21-193 limits assumed): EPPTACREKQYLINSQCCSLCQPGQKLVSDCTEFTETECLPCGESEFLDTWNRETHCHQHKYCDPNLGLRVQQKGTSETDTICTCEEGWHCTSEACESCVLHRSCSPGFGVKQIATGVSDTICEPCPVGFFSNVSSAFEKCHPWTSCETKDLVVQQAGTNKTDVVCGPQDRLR
Method: Binding to TNFR superfamily members for which ELISA methods had already been established (CD40 and OX40) was evaluated to detect potential propensity to cross react to non-target proteins.
ELISA plates (Greiner #655074) were coated with 50 μl/well of recombinant human OX40 (R&D #1493-CD), CD40-Fc (Ancell #504-820) or CD137 (R&D #838-4B) diluted to a final concentration of 0.5 μg/ml in PBS for 1 h at 37° C. or overnight at 4° C. Plates were washed with PBS+0.05% TWEEN20 (PBST), followed by block with PBST+1% bovine serum albumin (BSA). Antibody samples were prepared as serial 1/10 dilutions from 10-0.01 μg/ml in PBST+1% BSA and incubated for 1 h in room temperature, followed by detection using a horse radish peroxidase-conjugated anti-human kappa light chain antibody (AbD Serotec # STAR127P) and developed using SuperSignal ELISA Pico Chemiluminescent substrate (Pierce ThermoScientific #37069).

[8] = target: T3, recombinant human CD137-Fc (R&D #838-4B); assay: ELISA, coated CD137 (R&D #838-4B)
[9] = target: T3, recombinant human CD137-Fc (R&D #838-4B); assay: ELISA, coated human CD137-Fc
[10] = target: T5, cynomolgus CD137 on transfected CHO cells (CHO-cyCD137) (cynomolgus (Macaca fascicularis); human); assay: flow cytometry on CHO cells transfected with cynomolgus CD137, PE anti-hIgG detection, MFI normalised 0-100% for each antibody
T5 construct: extracellular domain;domain: transmembrane and intracellular part; also called cyno CD137
T5 sequence (P25942 other isoform, or with tags, fused parts or gaps): as the sequence (P25942 other isoform, or with tags, fused parts or gaps limits assumed) above, with P4L, N19S, R50K, T66I, P67S, F69Y, G75E, V149A counted along it
Method: as §1, §2

[11] = target: T5, cynomolgus CD137 on transfected CHO …; assay: flow cytometry on CHO-cyCD137 cells; 95% confidence interval of the EC50
Method: as §1, §2

[12] = target: T2, human CD137 on transfected CHO cells …; assay: flow cytometry on CHO-huCD137 cells; 95% confidence interval of the EC50; remark: listed apart in the source
Method: as §1, §2

[13] = target: T6, cynomolgus CD137 (ELISA, Example 15) (cynomolgus, UniProt A9YYE7 24-186); assay: ELISA, cynomolgus CD137
T6 construct: Reagent not described; also called cyno CD137
T6 sequence (A9YYE7 entry or part of it): as the sequence (Q07011 24-186 limits assumed) above, with P4L, N19S, R50K, T66I, P67S, F69Y, G75E, V149A counted along it

T1 sequence (Q07011 24-186 limits assumed): as the sequence (Q07011 24-186 limits assumed) above

- Kd [1]: 0.641 nM
- koff [1]: 0.00118 s⁻¹
- kon [1]: 1.85e+06 M⁻¹ s⁻¹
- EC50 (read off the curve) [2]: ~0.2 µg/mL
- EC50 [3]: 0.23 to 0.34 nM
- EC50 [4]: 0.27 nM
- Kd [5]: 14 nM
- koff [5]: 0.0023 s⁻¹
- kon [5]: 160000 M⁻¹ s⁻¹
- Kd [6]: 18 nM
- koff [6]: 0.0025 s⁻¹
- kon [6]: 140000 M⁻¹ s⁻¹
- EC50 [8]: 0.4 nM
- EC50 [9]: 0.41 nM
- EC50 (read off the curve) [10]: ~0.1 µg/mL
- EC50 [11]: 0.55 to 0.87 nM
- EC50 [12]: 0.17 to 0.26 µg/mL
- EC50 [13]: 0.85 nM
B1: 1630/1631 (antibody, human IgG4 S228P, kappa, V domains shown)
VH: EVQLLESGGGLVQPGGSLRLSCAASGFTFGYSYMSWVRQAPGKGLEWVSSIGSGSSYTYYADSVKGRFTISRDNSKNTLYLQMNSLRAEDTAVYYCARVYSSPGIDYWGQGTLVTVSS
VL: DIQMTQSPSSLSASVGDRVTITCRASQSISSYLNWYQQKPGKAPKLLIYAASSLQSGVPSRFSGSGSGTDFTLTISSLQPEDFATYYCQQYYTWVPFTFGQGTKLEIKR
notes: the format in each assay is not restated
- binding result [7]: no binding (tested: 10 µg/ml highest concentration tested)
